Measured values as given in article PMC10275640.

Key:
[1] = target: Uso1 CCD-His6x (coiled-coil domain, residues 660–1103) (Aspergillus nidulans); test: AUC + other: dynamic light scattering; sedimentation velocity (20 °C, 48,000 rpm, PBS with 5% glycerol and 1 mM β-mercaptoethanol) and DLS at 20 °C; molecular mass from the Svedberg equation, compared with the predicted monomer
[2] = target: Bos1-GST (Bos1 cytoplasmic domain, residues 1–219) (Aspergillus nidulans); test: pull-down; 75 µg SNARE-GST on glutathione Sepharose; His6 preys at 0.2 µM, overnight at 4 °C in 25 mM HEPES-KOH pH 7.5, 150 mM NaCl, 10% glycerol, 0.1% Triton X-100, 0.1 mM DTT; anti-His blot
[3] = target: Bos1-GST (Bos1 cytoplasmic domain, residues 1–219); test: GST pull-down with purified proteins, anti-His6x western blot quantitation; settings: 4 data points; parent: est. 0.5; read off a plot
[4] = target: Bet1-GST (Bet1 cytoplasmic domain, residues 1–144); test: GST pull-down with purified proteins, anti-His western blot quantitation; settings: n = 3, read off a plot
[5] = target: Bos1-GST (Bos1 cytoplasmic domain, residues 1–219); test: as above; settings: n = 3; parent: est. 0.7; read off a plot
[6] = target: Uso1(E6K/G540S)-His6x (full length) (Aspergillus nidulans); test: AUC + other: dynamic light scattering; sedimentation velocity (20 °C, 48,000 rpm, PBS with 5% glycerol and 1 mM β-mercaptoethanol) and DLS at 20 °C; molecular mass from the Svedberg equation, compared with the predicted monomer
[7] = target: Uso1(E6K/G540S)ΔCTR-His6x (residues 1–1040) (Aspergillus nidulans); test: as above
[8] = target: Uso1-HA3 (native full-length Uso1 in Aspergillus extract) (Aspergillus nidulans); test: SEC; Aspergillus cell extract on Superose 6 10/300 in 25 mM Tris-HCl pH 7.5, 600 mM KCl, 4 mM EDTA, 1 mM DTT; fractions blotted with α-HA
[9] = target: Uso1-His6x (full-length Uso1, residues 1–1103) (Aspergillus nidulans); test: SEC; bacterially expressed, purified His-tagged reference proteins run on the same Superose column; fractions blotted with α-His
[10] = target: Bet1-GST (Bet1 cytoplasmic domain, residues 1–144) (Aspergillus nidulans); test: pull-down; 75 µg SNARE-GST on glutathione Sepharose; His6 preys at 0.2 µM, overnight at 4 °C in 25 mM HEPES-KOH pH 7.5, 150 mM NaCl, 10% glycerol, 0.1% Triton X-100, 0.1 mM DTT; anti-His blot
[11] = target: Uso1-His6x (full-length Uso1, residues 1–1103) (Aspergillus nidulans); test: AUC + other: dynamic light scattering; sedimentation velocity (20 °C, 48,000 rpm, PBS with 5% glycerol and 1 mM β-mercaptoethanol) and DLS at 20 °C; molecular mass from the Svedberg equation, compared with the predicted monomer
[12] = target: Uso1ΔCTR-His6x (residues 1–1040) (Aspergillus nidulans); test: as above

Substance: Uso1 CCD-His6x (coiled-coil domain, residues 660–1103) (domain or fragment)
- stoichiometry N [1]: 2

Substance: Uso1 GHD E6K (single mutant), His-tagged (domain or fragment)
- fold less efficient than G540S GHD [2]: 3 fold

Substance: Uso1 GHD-His6x (globular head domain, residues 1–659) E6K; G540S
- response (% of input prey bound) [3]: 35
- response ([4]; parent: est. 30): 38 % bound prey
- response [5]: 21 % bound prey

Substance: Uso1 GHD-His6x (globular head domain, residues 1–659) G540S
- response (% of input prey bound) [3]: 35

Substance: Uso1(E6K/G540S)-His6x (full length) (natural protein)
- fold change in protein retained against wild-type Uso1 [2]: 5 fold
- stoichiometry N [6]: 2

Substance: Uso1(E6K/G540S)ΔCTR-His6x (residues 1–1040) (domain or fragment)
- stoichiometry N [7]: 2

Substance: Uso1-HA3 (native full-length Uso1 in Aspergillus extract) (natural protein)
- stoichiometry N [8]: 2

Substance: Uso1-His6x (full-length Uso1, residues 1–1103) (natural protein)
- stoichiometry N [9]: 2
- percent of the prey pulled down [10]: 70%
- stoichiometry N [11]: 2

Substance: Uso1-His6x (full-length Uso1, residues 1–1103) E6K; G540S
- response ([4]; parent: est. 68): 60 % bound prey

Substance: Uso1ΔCTR-His6x (residues 1–1040) (domain or fragment)
- stoichiometry N [12]: 2
